This is an account of results in PMC2528196.

Substrate in the series “purified protein”: Nc1ncnc2c1ncn2[C@@H]1O[C@H](COP(=O)(O)OP(=O)(O)OP(=O)(O)O)[C@@H](O)[C@H]1O
The experiment in a line: purified protein. The settings on record: saturating 56-mer ssDNA, 37°C, pH 7.6, 7 mM MgCl2, 100 mM NaCl.

In another series the target is Srs2 (Saccharomyces cerevisiae, UniProt P12954 1-1174). Kind of series: EMSA. In general terms: A gel shift assay detects complexes by their altered migration in electrophoresis.

B1: Srs2 (Saccharomyces cerevisiae S288C) (protein)
chain: MSSNNDLWLHLVSQLNTQQRAAALFDYTRGLQVIAGPGTGKTKVLTSRVAYLILHHHIHPRDIIVTTFTNKAANEMKERLQEMLRGAGVNISELLIGTFHSICLKILYRFGHLVDLQKDWRIIDEKEIDVILDDMIEKVPDQIRDYASSITRKVNLCMPSKNGDEWTIHPKLIKKQISKLKSNAILPEEYILDSNHDAALGYFYQIYQSELSKKNTLDFDDLLMYTFRLLTRVRVLSNIKHVLVDEFQDTNGIQLDLMFLFAKGNHHLSRGMTIVGDPDQSIYAFRNALAHNFLEMGRKCPIEYSTIILVENYRSSQKILNTSEILITQQNKGRQNRAPLRAQFDLDFPPVYMNFPAYFLEAPSLVRELLYLKALPNLFTFNDFAILVRQRRQIKRIESALIEHRIPYKIIRGHSFWDSKETRAMLNLLKLIFSPNDKHAILASLLYPARGLGPATGEKIKNALDTLATDVSCFQILKDISSKKIMLDIPTKGRSVIADFISMIENCQLLLQSTLLGGLSDLFDKLYELSGLKYEYLYKDGKKKNDQLEKSEPNLLNARHKNIELLKNYFLALLSKSESSDKEKNEAIKAATDEAEPIENKVITPKEYLRNFFNSLSLHSDAAEEEESESNKDAKIKREKNGFVTISTIHGAKGLEWPVVFIPGCEEGIIPCVFNDDKKDESEEDEEEDQENSKKDASPKKTRVLSVEDSIDEERRMFFVAQTRAKYLLYLSNTVTVEDVDRPRIASRFLTTDLIKAMSDSQKLFESTNSIKKLYRILNKKPPAEDDKLFSLDQLRKDYNQFIENRRERMIWQGIQMNDVYGIQLSRNKLLGSVSDFTSAADQLRLETQNSIFPQKKLIEKSRPSKINGNYAPKSRVKSPEKRYAPETTSFHSPTKKKVYAPQYVSTTNVPSRQEFHSSTGKNIPFLRREDRSITDISPRSSTRSLKGASPNKTSHMSDDLMRPSPTRKDKVTRNIHFATAGTFRIETQSNVDELHPPEYSNKSGQSLTSSEFSGFSSACSNSDQPTNLIEDINNELDLSDEELLNDISIERRRELLGSKKTKKIKPKTRNRKSKRGDKVKVEEVIDLKSEFEEDDSRNTTAAELLHNPDDTTVDNRPIISNAKFLADAAMKKTQKFSKKVKNEPASSQMDIFSQLSRAKKKSKLNNGEIIVID
For orientation: Km means the concentration of substrate that gives half-maximal velocity. Usually kcat stands for the number of substrate molecules converted per active site and unit of time at saturation. Turning to B1, in “purified protein”, the Km was found to be 143 µM and the catalytic constant (kcat) turned out to be 55.3 s⁻¹.

B2: forked DNA P1/P2 (dsDNA)
DNA 1: AGAAGGTTTCGAATCAGAGGTAGGTGCCCGGCCTCCAACTTGCCGTATTCCTGGT
DNA 2: ACCAGGAATACGGCAAGTTGGAGGCCGGGCTGGATGGAGACTAAGCTTTGGAAGT
Take B2: in the series with Srs2, the binding result is “binds”.
